According to US20090142280A1:

Assays:
[1] = biological target: LL-37 (…) (human); experiment: cell-based or functional assay
[2] = biological target: oligopeptide-10 (HB64), …-NH2; experiment: cell-based or functional assay
[3] = tested on: LL-37 (LLGDFFRKSKEKIGKEFKRIVQRIKDFLRNLVPRTES)
[4] = tested on: T1, oligopeptide-10 (HB64), FAKALKALLKALKAL-NH2
T1 sequence: FAKALKALLKALKAL

[5] = biological target: HB1345, decanoyl-KFKWPW-NH2; experiment: cell-based or functional assay
[6] = biological target: hexapeptide-21 (HB168), FALLKL-NH2; experiment: cell-based or functional assay

chymotrypsin (Sigma-Aldrich) (enzyme)
Survival of peptide (1 mg/mL) with chymotrypsin 22 µg/mL, no inhibitor, LC/MS, Expt. 39 [1]: < 1 h | Survival of peptide (1 mg/mL) with chymotrypsin 25 µg/mL, no inhibitor, LC/MS, Expt. 34 [2]: < 1 h

elastase (Sigma-Aldrich) (enzyme)
Survival of peptide (1 mg/mL) with elastase 25 µg/mL, no inhibitor, LC/MS, Expt. 22 [2]: < 1 h

kallikrein (Sigma-Aldrich) (enzyme)
Survival of peptide (1 mg/mL) with kallikrein 22 µg/mL, no inhibitor, LC/MS, Expt. 41 [1]: < 4 h | Survival of peptide (1 mg/mL) with kallikrein 22 µg/mL, no inhibitor, LC/MS, Expt. 47 [1]: < 4 h | Survival of peptide (1 mg/mL) with kallikrein 22 µg/mL, no inhibitor, LC/MS, Expt. 49 [1]: < 1 h | Survival of peptide (1 mg/mL) with kallikrein 22 µg/mL, no inhibitor, LC/MS, Expt. 55 [1]: < 1 h | Survival of peptide (1 mg/mL) with kallikrein 25 µg/mL, no inhibitor, LC/MS, Expt. 27 [2]: < 24 h

plasmin (Sigma-Aldrich)
TIC trace and mass spectrum (LC/MS) after 1-hour incubation [3]: the molecular weight of parent peptide LL-37 was undetectable | TIC and XIC traces (LC/MS) after a 4-hour exposure [4]: while most of the HB64 peptide was degraded, some parent peptide could still be detected

plasmin (Sigma-Aldrich) (enzyme)
Survival of peptide (1 mg/mL) with plasmin 22 µg/mL, no inhibitor, LC/MS, Expt. 37 [1]: < 1 h | Survival of peptide (1 mg/mL) with plasmin 22 µg/mL, no inhibitor, LC/MS, Expt. 38 [1]: < 45 min | Survival of peptide (1 mg/mL) with plasmin 20 µg/mL, no inhibitor, LC/MS, Expt. 45 [2]: < 4 h | Survival of peptide (1 mg/mL) with plasmin 25 µg/mL, no inhibitor, LC/MS, Expt. 25 [2]: < 4 h | Survival of peptide (1 mg/mL) with plasmin 25 µg/mL, no inhibitor, LC/MS, Expt. 30 [2]: < 6 h | Survival of peptide (1 mg/mL) with plasmin 46 µg/mL, no inhibitor, LC/MS, Expt. 32 [2]: < 4 h

trypsin (Sigma-Aldrich)
TIC traces (LC/MS) of peptide degradation at time zero, 1 hour and 23 hours [4]: the parent peak (represents the full-length, non-degraded peptide) in the TIC traces was reduced over time and peaks for various breakdown products increased in intensity over time

trypsin (Sigma-Aldrich) (enzyme)
Survival of peptide (1 mg/mL) with trypsin 25 µg/mL, no inhibitor, LC/MS, Expt. 8 [5]: < 1 h | Survival of peptide (1 mg/mL) with trypsin 25 µg/mL, no inhibitor, LC/MS, Expt. 6 [6]: < 1 h | Survival of peptide (1 mg/mL) with trypsin 25 µg/mL, no inhibitor, LC/MS, Expt. 4 [2]: < 1 h | Survival of peptide (1 mg/mL) with trypsin 25 µg/mL, no inhibitor, LC/MS, Expt. 10 [2]: < 1 h | Survival of peptide (1 mg/mL) with trypsin 25 µg/mL, no inhibitor, LC/MS, Expt. 12 [2]: < 1 h

urokinase (enzyme)
Survival of peptide (1 mg/mL) with urokinase 22 µg/mL, no inhibitor, LC/MS, Expt. 51 [1]: < 24 h | Survival of peptide (1 mg/mL) with urokinase 22 µg/mL, no inhibitor, LC/MS, Expt. 53 [1]: < 24 h
